Experimental findings from paper PMC3871816, “The Arabidopsis adaptor protein AP-3µ interacts with the G-protein β subunit AGB1 and is involved in abscisic acid regulation of germination and post-germination development” (Journal of Experimental Botany, 2013) are described below.

This test addresses T1, GST-fused AP-3µ (Arabidopsis thaliana, UniProt F4I562 1-415).
T1 construct: AP-3µ of Arabidopsis thaliana; construction is in Supplementary Method S2, induction and purification in Supplementary Method S3; also called GST-AP-3µ; pGEX-5X-AP-3µ
T1 sequence (looked up): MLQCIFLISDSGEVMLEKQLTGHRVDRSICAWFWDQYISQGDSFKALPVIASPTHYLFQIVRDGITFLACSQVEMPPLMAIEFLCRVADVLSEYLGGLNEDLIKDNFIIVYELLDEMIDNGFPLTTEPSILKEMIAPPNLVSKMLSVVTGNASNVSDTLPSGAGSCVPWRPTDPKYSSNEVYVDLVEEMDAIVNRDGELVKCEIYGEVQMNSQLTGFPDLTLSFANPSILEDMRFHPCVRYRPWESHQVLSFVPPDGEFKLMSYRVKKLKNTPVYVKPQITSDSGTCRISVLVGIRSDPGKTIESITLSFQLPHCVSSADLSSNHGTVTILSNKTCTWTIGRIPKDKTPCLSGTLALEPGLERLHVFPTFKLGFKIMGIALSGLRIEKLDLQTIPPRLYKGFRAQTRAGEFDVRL
Kind of test: pull-down; GST-AP-3µ or GST-AP-3µ^DN bound to Glutathione Sepharose 4 Fast Flow, washed with PBS, incubated with purified His-AGB1 at room temperature for 60 min; eluted with 20 mM reduced glutathione; immunoblot with anti-GST and HisProbe-HRP. Conditions: both partners purified. A general note: A western blot detects proteins with antibodies after separation by electrophoresis.

B1: Polyhistidine-tagged AGB1 (natural protein, Arabidopsis thaliana, UniProt P49177 1-377, looked up)
chain: MSVSELKERHAVATETVNNLRDQLRQRRLQLLDTDVARYSAAQGRTRVSFGATDLVCCRTLQGHTGKVYSLDWTPERNRIVSASQDGRLIVWNALTSQKTHAIKLPCAWVMTCAFSPNGQSVACGGLDSVCSIFSLSSTADKDGTVPVSRMLTGHRGYVSCCQYVPNEDAHLITSSGDQTCILWDVTTGLKTSVFGGEFQSGHTADVLSVSISGSNPNWFISGSCDSTARLWDTRAASRAVRTFHGHEGDVNTVKFFPDGYRFGTGSDDGTCRLYDIRTGHQLQVYQPHGDGENGPVTSIAFSVSGRLLFAGYASNNTCYVWDTLLGEVVLDLGLQQDSHRNRISCLGLSADGSALCTGSWDSNLKIWAFGGHRRVI
notes: AGB1, G-protein β subunit of Arabidopsis thaliana; His-AGG1 is named in the same sentence but in no result; also called His-AGB1; His-tagged AGB1; source: E. coli, purified
As for B1, the binding result was “binds”.
